Experimental data: the domain aggregation screens of Martell et al. (2025)

Assay: soluble fraction after stress (log2 fold change); higher = more stays soluble; pooled small domains, quantitative proteomics
Conditions: stress: pH 4
In short: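 Custom libraries of small protein domains were pooled and exposed to pH 4. High-throughput quantitative proteomics then measured the log2 fold change in the amount of each domain still soluble, with higher values meaning more stayed soluble. This soluble-fraction fold change stands for aggregation propensity.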

Row | Sequence | soluble fraction (log2)
1 | HMLTRSTVNVETGTAAIGLGKLYGVYDMSRKGLKYSFSVDSDAMTKVMEMLLPLGIKSLTVEPPS | -0.658
2 | HMLTTADLMMVHANSNKAIDYIVTDDNTKLTVDEPVTAKWITTADSIYRAVAYYNKVGDGKAQIVSVGN | 0.0559
3 | HMLTYPEHVRLRMIELRKTRSLSQSEFGTYLGLSYQTISSLELGRHEWSLAHIQTALLRFELPPNYF | -1.82
4 | HMLVATFGPTTGWEGREIIWDVDRFILVGHGAVPAAGVLDYDRRGQLIWAQPELRAWVVEVDRWETG | -1.61
5 | HMLVMTDNVIKAINDLLNYEAAAGIKKKQRYTAYQIYKELSEQGVYHGSRRRMEEVVSKLRVERNQI | -0.249
6 | HMLVPWKSANLFKLVEPNFRLAERKIPMLPSADREKLQEIMSDMKDAIVDNDKMALMKLDEELTDFLFDFV | -1.03
7 | HMLVSPLDEIPGIGRNRKKTLLNHFGSAKTIEGASLEDLKKVDGISELIAKKIYNYFHLNKNF | 0.104
8 | HMLWTDTKYVTVPDFVGKEPKEIESSYLYNIEYHGEGTKVISQQPAAFSRTIEGGTVRLYLG | 0.186
9 | HMLYGRRFQVEGLNLERYLRAAADSGIPLKGARRFGRTLTGVAAEEHMAALEALARQGGWLFTPLEAVGAN | -0.0895
10 | HMLYKNIAKKLRFRINSDEFAIGDVLPTERQLMEEYQASRVSIRKAIDELVAIDLIEKKQGSGTYIKQKEV | -0.493
11 | HMMESLGIRLKRLRKDKGLTQVELGKLSGVTGVTIGYWEKDLNEPGSKALSKLAQALGTTESYLLYGVS | 0.22
12 | HMMNNKEIGTRIAVLRKGMGDSQAKLAERLDVSPQAVSKWETGQSLPDIGNLLKLSWLFRTSINHILEGS | -0.384
13 | HMNADAPWSPFSPGFTGPMNRPVIGLVTKADLANPQRISLVESWLVQAGAQKVFVTSALENTGVDEMFIFL | -0.288
14 | HMNADLDIQNVNGNTPLWEAVMRYRGDGFFIEQLLKNGANPDIKNNYGVSPKSLARTIANYDVRRFFN | -0.333
15 | HMNADSLIGENIRISERVSNMDQTGMAVVHGQEWTVRTRNDNEIIEPGEEAKILAISGVKLIVEK | -0.0665
16 | HMNAESLIGDRAVVTVAIERNKRGRVDVTGQDWAATTRDGEEIKVGQEVLVVGISGVALIVEER | 0.164
17 | HMNAIYKFVLGMIGKRSGVVTTLPSKKQVEFQANMLAEKFMQNGIDPNALKSPEQVKNVLANIDQ | 0.01
18 | HMNALVAKYKQGVTEEQQQGQGIIIIKRVVVRDQEAWVYEKKIFDWGGVSYFRDKQRITASTFNQETAL | -1.12
19 | HMNAQLTTQEAADLLNVSRPHLVKLLEDGELPFLRTGKHRRVRLADLLQFKNAREQASVQAMDELSRQAQ | -0.177
20 | HMNARSTSYSDFIARVDKDEVASVRLDGETVTYQAADGTTYTTVKPESDPIAERLIAKGIEVNVVRQ | -0.519
21 | HMNASITVPDVRNLTVKQASEQLLASGFTPIPYAATKDGVGNDIVYAQDPPPSVLARSGDQITITYNPA | 0.198
22 | HMNASTVTLENFEGAKYDDVYGKYDYQFSVTYEQTDKYESGVIISQKPEAGTKIIKGSQVSLVVAT | 0.101
23 | HMNASVIADLFRQTGASVMIHGHTHRPDIHALEANGDAAFRAVLGAWHTEGSMIRVTQDDVTLIAFP | 0.173

Row | Sequence | soluble fraction (log2)
24 | HMNATLEQLTQREREIAVLMAEGLTNAQIGSRLNVSMASVKAHLSHIFTKLGVDNRVSAAMMVL | -0.0121
25 | HMNATPDMERYWASSAAEGRALEPLYAVSRGDGGEPLWWSPSRAQAERMAREEGGPLTVDRIDPP | -0.0463
26 | HMNAVYAEERRAYILAALEKRGTVHSYELAEQMGVSRETIRRDIMELSNRGLLVKTHGGAIST | -0.352
27 | HMNAYEVLIPNIYIGQRVDQTLASLFPQFSRSRLQNWLARGNLLIDGEIIKPKTKVLGGEQIIILDT | -1.05
28 | HMNDAEEKAEAIEGVKNFMANMEKTDIDFKSKESVLLEQVEEIRKNYPVAQWPVIVKQLYNNIGRL | -0.257
29 | HMNDIDKFVAALVDQDTMAGTNRAFDENDIQTMKNMSSIEDVKQYAVANGLSSGKVNNALISAGL | -0.195
30 | HMNDIQIILQEAVARLPKKQQLVFNMKYFDHLKYQEISEILGTSVGGLKASYFQAVKKIENYIINKH | 0.0158
31 | HMNDRLFQILYLLLEKGTMTAPELSRALEVSVRTIYRDIDALSLAGVPVYATQGKNGGVSLLPNY | -0.758
32 | HMNDTLQEYFEALERLKSNNPINVPKNTKINNDSVALEAGRKRGSIKKSREIFAELIEAINNAS | -0.186
33 | HMNDVEAIDDALKDLHKVSPDLAALVEMKFFGGMTEPEISEILGVSERTVRREWEKARAALLVLLE | -1.18
34 | HMNDVHELPYSSFIEMVERGHVISVTVKHINIEFESTKNENYRTIAPQAMTPPYLELLLKNKDSVKVTFLP | -0.516
35 | HMNDVLVGAIPESASGSRLDKVMPSVFPPYSRSQLQVWLKQGRILMGNGIPSPRLIVSGGEVLSLVVPELP | -0.244
36 | HMNEDFSEIIAAVKKFAVDNLSLSTLSDEELEEQIKTITDNMIGNRYVSIKNRVDIAQQVFSSIR | -0.435
37 | HMNEMEFAQRLRQFRKAKNLTQQELADRLGVSNKSVSRWESGSYPDVGTLVALARALGVTVDELLDPKA | 0.149
38 | HMNEMEWVAKLIDQLPERERMILQLREIEQYEFDQIASLMEIPEGTVRVYLSRIRKKIKKQFIEIQSH | -0.405
39 | HMNENFPYRLKEMVVVQSRTWPGINKPGGVGQVMKINPEAGTVNVKYVLGGSEKNIELKYVTSNDLNSK | 0.063
40 | HMNENYNLSKREKEVLDLLVNGKSYKVIATELAISYETVHSHIKKIYHKLHVSSIGEAVSKTIKQKIL | -0.561
41 | HMNEPITIALREAEEAANKILNEGVHSVELSPQNGYVRRLQHELIARYGLTSASRGSDPSRRVSVGAN | -0.273
42 | HMNEQKVSSLLTPRQLAFIDEYLIDFNGAQAAIRAGYSHKTAGPQAARLLVNVNISRMIAERIEARNK | -1.22
43 | HMNEQVAVVSGSQVNVRSGPGTTSAVVGQVSKGDNLPVLNQSGDWYQIKLPGGNAGWVAGWLVSLRPTT | 0.237
44 | HMNESPVLAVLTPTERKVASLVAEGLTNQAIAARMILAEGTVKNHVSTLLHKLQAPDRTALALTLYKAFQ | 0.165
45 | HMNETRVDQAADLLLALLEKEPKSAAEILDEFEQAGFSKSGLYRAKDALGVVSIRKEGRWVWSLPHSLD | -0.778
46 | HMNEYIVSAEQEGMRLDVFLTEQMEGSRSYIQSLIKGGHVTVGDKVGKANLRLTPDTVIHVEIPEPE | -0.166

Row | Sequence | soluble fraction (log2)
47 | HMNEYLPEAVQKLLEVMEYDIPYTSNELMERLGLKAKEGFRRNYLHPAMEMKLIQMTIPDKPNSRNQRYLR | -0.248
48 | HMNFHLEHHIAELLYRSIRGELSDFERQELNQWRSDSPMHETLFMRLQDDEYIDEELGVFIK | -1.89
49 | HMNFKNMIDSLSGILFKKDPSAAIIDIGGVRLKVFITVGSYEQLPAKGEQVEILTYLHVKEDILNLYG | -0.819
50 | HMNFMDGFQSFFQESGAMNRPMTADVVSYRLPDGTVQQGNSTMRGLMDQYLKSIGQSPTTGVP | -0.176
51 | HMNFRESVLAVFENSKQKYLDFDEIAKRLGLTRGFDRQALASMLNELTRNDEIVFTKRNKYTLPEN | -0.774
52 | HMNGAVAEQARKQLMAALKASEFIAEEKLDEWLDALALPEDKRTAIVDAVDELDYEEAISELEN | 0.0531
53 | HMNGDYFEYRYAVNGSRSTPPSLSKTSRNPSGWSTTVPTVGNLQYLWFTVAKINGETNSLIQNWSTPARQT | 0.143
54 | HMNGEAQTMYVTARTLNVRKGPGTSYAKAGTLSRGTAVQVVGFSGNWAKLSNGYYVSTSYLAKI | 0.0208
55 | HMNGKWKLRIIKELLHSNIRFGQILKNIPDISPKVLSQQLKEMEEDGIIERIVISEMPPNVEYVLTDMGE | -0.458
56 | HMNGLNISYRMDGENVVETIVFPDATMIRTIAPNGVMTIKTIEDGSVSTSELKADYKLYKKIYESQY | -0.401
57 | HMNGSVLVTGGSVWIRAGASKETDGLGIVHKGDVLKRSGSDASGWRGVVYEGQNAFISAKYSSI | 0.424
58 | HMNGTEAIRRYIDQFASKHATTPRMLKLNERKQLIQELKNNGLLEIKKAVETVAQHLGISRASAYLYVKE | ≥ 0.43
59 | HMNGVPDMSPVPEGARNSTLHAWAFGRLKNHPDNETGIREDLFRRGHASGLQDAELDQIWKSIKRTL | ≥ 0.43
60 | HMNGVSNETLIQKSALYEELNQPDLALKMINTALKKDSVNIEILHRLVTLLMSQEKNEEAILYNQKIIDH | -0.0993
61 | HMNHSITLTERKNLLITGVKKIENFDKEEFLIETTMGFLVVKGDGLELIKLDTISGNVSIKGIVNGFTYID | 0.0772
62 | HMNIAAVIGQTGVLQDDLKAGEQGTVKADNKLWTAVLAEGEEAVKKEERVDIVAVEGVKLIVRRNI | -1.14
63 | HMNIDEIFLTKNEIYFSFEYQKKSQLDRYSKIISLDHRIDKNTAYAYANKKQFLNFINLNIDYKIIDNSF | -1
64 | HMNIDEIIGKKAVVIESIDNLQGTGKVRYQGMEWTARAEEENDRIEKDAEVEIIAVKGVKLIVKMK | -0.19
65 | HMNIDNTWQPSEDVVEILTRSGINEDFINELIPEFIVYWTERPGTLVSYNSKFIEHVRLKWAQHSAEI | -1.04
66 | HMNIDVAAEKQQLGPNADQIVKGTVTWMQGLVAKGIWSETDFEEGKIFTATADGINAINKIRRYYGEQT | -0.439
67 | HMNIEDFKDKVKELKQYTYQELVEDVKLKTDRADVILPASKIYLEAMQQAKVDSIIVPKVGLAEGVAR | 0.149
68 | HMNIEEQVVAEVLVKDFMKQLTPRDIHILELRKNGYTYQEIAGQLGYHTHSAVKKRVDRLAEQWLAYTQGH | -0.739
69 | HMNIFAHQIGKLRTERHLSQTDVAKRLYVSRQAVSKWENGDAEPSLDNLIALAKLFNVSLDNLITGQ | 0.138
